Measured values reported in patent US20180057596A1 (AstraZeneca / MedImmune, published 2018).
Values joined by “and” are separate entries in the source; they are usually repeats but may differ in a detail not shown here. Equal entries are not always repeated.

What was measured:
[1] = biological target: T1, cynomolgus IL-4Rα HIS FLAG (cynomolgus); assay: SPR (BIAcore 2000), value in parentheses under the mean, taken as a single determination
T1 construct: also called Cyno IL4Rα HIS FLAG; not shown: HIS and FLAG tags and any vector-encoded linker of the cynomolgus HIS FLAG construct
T1 chain: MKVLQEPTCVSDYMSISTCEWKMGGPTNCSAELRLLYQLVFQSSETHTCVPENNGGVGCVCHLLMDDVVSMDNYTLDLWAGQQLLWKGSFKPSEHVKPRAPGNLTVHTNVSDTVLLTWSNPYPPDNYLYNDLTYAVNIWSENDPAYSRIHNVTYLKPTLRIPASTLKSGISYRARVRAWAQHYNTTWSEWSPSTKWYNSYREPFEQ
Experimental: (§1) In brief, Protein G′ (Sigma Aldrich, P4689) was covalently coupled to the surface of a CM5 sensor chip using standard amine coupling reagents according to manufacturer's instructions (BIAcore). This Protein G′ surface was used to capture a constant amount of purified anti-IL4R• antibodies or isotype control via the Fc domain. Human or cynomolgus IL-4R• HIS FLAG prepared in HBS-EP buffer (BIAcore AB), at a range of concentrations, between 100 nM and 0.2 nM, were passed over the sensor chip surface. […] The resulting sensorgrams were evaluated using BIA evaluation 4.1 software and fitted to 1:1 Langmuir binding model, to provide the relative binding data. The experiments were performed over the course of at least three separate days to calculate an average monovalent affinity.

[2] = biological target: T2, human IL-4Rα HIS FLAG (in house HEK-EBNA derived) (human, biotinylated where used as the labelled partner in the DELFIA assay); assay: as above
T2 construct: also called HuIL-4Rα; Human IL4-Rα/FLAG/HIS tag
T2 chain: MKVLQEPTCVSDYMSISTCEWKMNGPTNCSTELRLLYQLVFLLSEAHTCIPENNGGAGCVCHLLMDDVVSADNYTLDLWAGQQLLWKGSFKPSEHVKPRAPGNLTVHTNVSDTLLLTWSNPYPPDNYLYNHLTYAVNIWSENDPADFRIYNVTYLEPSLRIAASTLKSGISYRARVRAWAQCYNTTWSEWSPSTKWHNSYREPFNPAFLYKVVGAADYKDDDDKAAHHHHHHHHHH
Experimental: as §1

[3] = biological target: T1, cynomolgus IL-4Rα HIS FLAG; assay: SPR (BIAcore 2000), IgG captured on Protein G', receptor as analyte, 1:1 Langmuir
Experimental: as §1

[4] = biological target: T2, human IL-4Rα HIS FLAG (in house …); assay: as above
Experimental: as §1

[5] = biological target: T3, human IL-13Rα1 Fc (R & D Systems, 146-IR-100) (human, UniProt P78552 27-343, limits assumed); assay: DELFIA epitope competition, no inhibition of biotinylated human IL-4Rα HIS FLAG binding to immobilised IgG
T3 construct: bought protein; not shown: Fc part of the bought fusion
T3 sequence (looked up): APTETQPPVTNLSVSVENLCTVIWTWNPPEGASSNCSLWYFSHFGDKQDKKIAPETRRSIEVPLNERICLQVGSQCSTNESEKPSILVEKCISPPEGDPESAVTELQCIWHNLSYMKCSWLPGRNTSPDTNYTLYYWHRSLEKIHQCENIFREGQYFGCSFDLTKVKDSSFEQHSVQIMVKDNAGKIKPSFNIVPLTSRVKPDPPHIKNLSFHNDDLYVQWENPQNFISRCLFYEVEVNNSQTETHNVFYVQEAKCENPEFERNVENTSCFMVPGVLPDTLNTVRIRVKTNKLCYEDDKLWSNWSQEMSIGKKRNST
Experimental: (§2) Titrations of IL-4R• species including cynomolgus IL-4R• HIS Fc (in house HEK-EBNA derived), human IL-4R• 175V Fc (AstraZeneca), human IL-4R• Fc and murine IL-4R• (both R & D Systems) were tested in each assay to establish the species cross-reactivity of the antibodies. Unbiotinylated human IL-4R• HIS FLAG was used as a positive control. Human and cynomolgus IL-4R• HIS Fc, along with Human IL-4R• 175V Fc, produced overlapping inhibition curves with […] IC₅₀ values. […] Details of the protocol are provided in the Materials and Methods section 4.6.1.
(§3) Purified IgG were adsorbed onto 96-well Maxisorp microtitre plates (Nunc) in PBS at a concentration which gave a significant signal when biotinylated human IL-4R• HIS FLAG was added at approximately its estimated KD for that particular IgG. Excess IgG was washed away with PBS-Tween (0. 1% v/v) and the wells were blocked with PBS-Marvel (3% w/v) for 1 h. […] Unbiotinylated human IL-4R• HIS FLAG was used as a positive control. […] These mixtures were then transferred onto the blocked IgG and allowed to equilibrate for 1.5 h. Unbound antigen was removed by washing with PBS-Tween (0.1% v/v), while the remaining biotinylated human IL-4R• was detected by streptavidin-Europium3+ conjugate (DELFIA• detection, PerkinElmer).

[6] = biological target: T4, Human common gamma chain (sIL-2Rγ) (R & D Systems 384-RG-050-CF) (human, UniProt P31785 23-254); assay: as above
T4 construct: bought protein; also called common gamma chain (IL-2Rγ)
T4 sequence (looked up): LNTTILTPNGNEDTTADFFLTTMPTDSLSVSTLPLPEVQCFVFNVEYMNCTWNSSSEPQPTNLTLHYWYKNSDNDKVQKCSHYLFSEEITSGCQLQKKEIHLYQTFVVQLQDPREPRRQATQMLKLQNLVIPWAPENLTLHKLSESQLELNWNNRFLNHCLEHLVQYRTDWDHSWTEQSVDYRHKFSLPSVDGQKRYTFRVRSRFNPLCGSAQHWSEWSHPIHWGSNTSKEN
Experimental: as §2, §3

[7] = biological target: T5, murine IL4Rα Fc (R & D Systems 530-MR-100) (murine, UniProt P16382 26-233, limits assumed); assay: as above
T5 construct: bought protein; not shown: Fc part of the bought fusion
T5 sequence (looked up): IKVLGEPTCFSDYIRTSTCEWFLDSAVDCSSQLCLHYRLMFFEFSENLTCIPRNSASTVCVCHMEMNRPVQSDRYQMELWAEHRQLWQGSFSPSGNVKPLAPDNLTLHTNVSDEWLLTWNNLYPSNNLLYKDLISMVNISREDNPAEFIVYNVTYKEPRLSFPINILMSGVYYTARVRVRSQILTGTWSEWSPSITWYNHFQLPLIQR
Experimental: as §2, §3

[8] = biological target: T6, human IL-13Rα2 Fc (R & D Systems, 614-IR-100) (human, UniProt Q14627 27-343, limits assumed); assay: as above
T6 construct: bought protein; not shown: Fc part of the bought fusion
T6 sequence (looked up): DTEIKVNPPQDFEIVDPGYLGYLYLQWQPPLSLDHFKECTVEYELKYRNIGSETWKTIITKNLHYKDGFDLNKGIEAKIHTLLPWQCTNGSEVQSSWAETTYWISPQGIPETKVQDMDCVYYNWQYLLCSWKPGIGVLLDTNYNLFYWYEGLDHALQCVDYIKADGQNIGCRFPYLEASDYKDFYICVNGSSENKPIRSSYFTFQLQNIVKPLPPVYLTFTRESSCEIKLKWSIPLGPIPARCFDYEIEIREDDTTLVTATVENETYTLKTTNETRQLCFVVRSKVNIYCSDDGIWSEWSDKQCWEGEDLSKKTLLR
Experimental: as §2, §3

Kd [1]: 4.67 nM and 4.34 nM and 4.41 nM
Kd [2]: 0.533 nM and 0.531 nM and 0.459 nM
Kd [3]: 4.41 nM
koff [3]: 0.00108 s⁻¹
kon [3]: 244000 M⁻¹ s⁻¹
Kd [4]: 0.504 nM
koff [4]: 0.000346 s⁻¹
kon [4]: 688000 M⁻¹ s⁻¹
binding result [5]: no binding
binding result [6]: no binding
binding result [7]: no binding
binding result [8]: no binding
B1: Antibody 37GL IgG (antibody, V domains shown)
VH: QVQLVQSGAEVKKPGASVKVSCKASGYAFTSYYMHWVRQAPGQGLEWMGIINPRGGSTSYAQKFQGRVTMTRDTSTSTVYMELSSLRSEDTAVYYCARGKYWMYDWGKGTLVTVSS
VL: QSVLTQPPSVSAAPGQKVTISCSGGGSSIGNSYVSWYQQLPGTAPKLLIYDNNKRPSGIPDRFSGSKSGTSATLGITGLQTGDEADYYCGTWDTSPVWEWPFGTGTKLTVL
notes: germlined IgG; also called Antibody 37 (FGL)
